assay: soluble on expression in E. coli; label from the status in PepcDB or PDB records

Sequence | soluble on expression in E. coli
MSLAQAPHPERIYLSGTGIDNTKTWDFFCSAGQNSGKWKKIEVPCNWELQGFGEYTYGRWYTIKGQHPSDETGTYRYKFDAPKSWAGQRVKIFFDGVMTDAEIMINGKPAGEMHQGGFYRFNYDITELLNLGKKNQLEVKVAKESANRSINAAERKADWWLFGGIYRPVWLEVLPQIHMEHFVLNADHQGKLQAAVDMAGDAKGHEIIVSVRSLKDGKTVYTSNGQTTITHSISNSDKEQMISGEWASIIPWSTENPNLYVAKLELKNPEGKIVQTRETRIGFRTVEFFPQDGVYLNGTKLVVKGINRHSFSVDGGRTTSAALSRMDALLIKEMNMNAVRSHYPPDEHFLDMCDSLGLVYMDELAGWQNGYDSRVGAKLVKEMIERDVNHPCIILWSNGNEGGWNTQTDPLFAQYDRLQKRHMVHPWADFNDLDTHHYPTYLTGVARFTNGYKVFMPTEFMHAMYDQGGGAGLRDFWDRWCTNPLFAGGFIWVYCDEAPKRSDKGGILDSDKSNAPDGVVGPRREKEGSYYAIRAQWSPIQLKPLLITNHFDGRFLLTNEYTFTNLKDCRMTYKVLSCGTPLQGNAEAGKVIAEGKVQLPSINPGETGTARFELPDSFRKGDVLELEAFDREGKSICNWTYPIHLAKQYFERNLAQTTLTPAPQKAEARQTSDAIELKSSKVSITFDAATGMIRHIKSGETEVPFKDGPVAIGMKMRYEPSLSYTRHSSDGAIYCAKYKGAADSIVWRLTNEGLLYMDAILLNRGSGGGGFDDAFMDAQVFNLGLSFSYPEQNCSGMKWMGRGPYRVWKNRIPGTNYGIWHKDYNNTITGESFENLIYPEFKGYHANLYWATLEGEKTSFTVYSRNDGTFFRVFTPEEPAGRIKDTMPAFPEGDLSFLLDIPAICSFKPIEQQGPNSQPGNIRIKSGDEGLHLNLMFDFREGHHHHHH | soluble
MSLAQTPVMDVGTKSYISHQEQKMTATVEQIESWIVDVPTIRPHKLSMTTMGCQSLVIVRLTRSDGICGIGEATTIGGLSYGVESPEAISSAITHYLTPLLKGQPADNLNALTARMNGAIKGNTFAKSAIETALLDAQGKALGLPVSALLGGALQTALPVLWTLASGDTAKDIAEGEKLLAEGRHRAFKLKIGARELATDLRHTRAIVEALGDRASIRVDVNQAWDAATGAKGCRELAAMGVDLIEQPVSAHDNAALVRLSQQIETAILADEAVATAYDGYQLAQQGFTGAYALKIAKAGGPNSVLALARVAQAAGIGLYGGTMLEGTVGTVASLHAWSTLPLQWGTEMFGPLLLKDDIVSVPLTFADGQVALPQTPGLGVELDEDKLHFYTRQEGHHHHHH | soluble
MSLARPNSKASIGTVFQDRAARYGDRVFLKFGDQQLTYRDANATANRYAAVLAARGVGPGDVVGIMLRNSPSTVLAMLATVKCGAIAGMLNYHQRGEVLAHSLGLLDAKVLIAESDLVSAVAECGASRGRVAGDVLTVEDVERFATTAPATNPASASAVQAKDTAFYIFTSGTTGFPKASVMTHHRWLRALAVFGGMGLRLKGSDTLYSCLPLYHNNALTVAVSSVINSGATLALGKSFSASRFWDEVIANRATAFVYIGEICRYLLNQPAKPTDRAHQVRVICGNGLRPEIWDEFTTRFGVARVCEFYAASEGNSAFINIFNVPRTAGVSPMPLAFVEYDLDTGDPLRDASGRVRRVPDGEPGLLLSRVNRLQPFDGYTDPVASEKKLVRNAFRDGDCWFNTGDVMSPQGMGHAAFVDRLGDTFRWKGENVATTQVEAALASDQTVEECTVYGVQIPRTGGRAGMAAITLRAGAEFDGQALARTVYGHLPGYALPLFVRVVGSLAHTTTFKSRKVELRNQEGHHHHHH | not soluble
MSLASIDFRNKINWHRRYRSPQGVKTEHEILRIFESDRGRIINSPAIRRLQQKTQVFPLERNAAVRTRLTHSMEVQQVGRYIAKEILSRLKEQDRLEEYGLDALTGPFESIVEMACLMHDIGNPPFGHFGEAAINDWFRQRLHPEDAESQPLTHDRCVVSSLRLQEGEENLNDIRRKVRQDICHFEGNAQGIRLVHTLMRMNLTWAQVGGILKYTRPAWWRGPVPDSHRYLMKKPGYYLSEEKYIARLRKELQLAPYSRFPLTWIMEAADDISYCVADLEDAVEKRIFSVEQLYHHLYHAWCHHEKDSLFELVVGNAWEKSRANTLSRSTEDQFFMYLRVNTLNKLVPYAAQRFIDNLPQIFAGTFNQALLEDASGFSRLLELYKNVAVEHVFSHPDVEQLELQGYRVISGLLDIYQPLLSLSLNDFRELVEKERLKRFPIESRLFQKLSTRHRLAYVEVVSKLPTDSAEYPVLEYYYRCRLIQDYISGMTDLYAWDEYRRLMAVEQEGHHHHHH | soluble
MSLASLRVLALACLPLFAVLHADAKTLLGKVKRATGMGVGEGPSVAKKPKYTATVPGFTPPSGDQRMNEFMAVDTSGEFMRHLYIEEGRTVCASATSRNRRPTSESPHSDDVVVVEGMLRGRPETRVHAMFDGFQGRHSAMWLAQNVMNYLNDLRDVNEEEITRQFERMDGDLRAANLPGGSSALIIFVRYEKKPTEARVVGRQIVPEGAKEFTSVAEALGGPLMPVVAMNFRRDPRAAKGIYTIHVASLGNSRCVLKSGRTAIHLSTPHTASSHKERHRVQAAGGVFTTVNGELLLGGVVPMTRAFGSFDFKKGGQGKLQQDLVSAVPDVTTFFAYPGDDEGHHHHHH | not soluble
MSLATIVVKTTPDNEIAYWPTGKEHLFCIALGTKAQAGPLGEFVHQFRTDRPGMVQVWTQGSDSFTLYLTPGSKDTITVTKDTLIISGTNSAYNRCLKTVNDYQKYSDKLVYMQPHELRGITSLEQYHRLADARMRQALDAVNASGLNEEFLAEQRAHIDYIRRSIFIHIARQLSRKEKLPEDWQRELTEVINSSVNGDYLRSYRGIGFFVNDLVMMQFTNLENGDLKEIKEYASFLFDRYRKFFTGDNLQYMQAQLIYEDEFQGSKTPSIPQLYETYRAEFPNSPFLNVLEPGVKENLRFQNSRITDKDYHILTCDSTITSLEDAVKPFKGKVVYIDVWATWCGPCLKEFQYLPTLKEKAHNMDVVYLYISIDRPEERKKWEKTIAYHQLKGYHLLVNEKLGKSLYTELGNERQILSIPCFVIIDKTGKIVIRHAAAPSEPEKVIEQLSTYYNKEGHHHHHH | soluble
MSLAYTIKKVEKETKISAHTLRFWAKKGLFPFVQKDENSVKYFSKSDIEWVKWIEWLRISGMPIEQVKHYIKLCSLGIKTAKERQEMLKQTKKKLQNQIKTLKESEKVLSKKIKIYEEMLANEVDGFNPESKDYQPCDKLHKFKGEGHHHHHH | not soluble
MSLDAPYFSPRRLGHVNLIVRDTDASMRFYQDVVGFEEVYRVPAIGGGFLSNGNTHHDVGMVQSSGPSGKGRPPGLNHLAFELETEVALVEGYERSRQDGLAFERTLDHDIAHSAYCADPDGNSCELYADVVREWRTARTGEVTKPKPAWWPGKTPPNPHRNYHAEPQLRQVAHAAFHPLRTQHATLVVADLRESIAFYTRRIGLALQAQGDGYALLGGRCGRRDVALVQARGQLSPGYHHVGLEVADAGELLQAAQRWREQGGQVERLIEHPLRTAVYITDPDGLLLQFFVDHAADHAAWRHLDREQALWIVEGHHHHHH | not soluble
MSLDDEPLLPDFEQLGYPRNLPTLVLGLRGMICEITHSKKNGWGIVKRPGVDKFFNILKNYYEIVIWSDESFPIPHEVLEKWNLPIIGILNKNHFSKINGKLFKNLSRLGRNLNRVILVDNESYSANIQYDNSIVLPIFKGDPYDNELNSIIDLLKAAAMQPGDIREYLKRFRCNDTNIGDEGHHHHHH | soluble
MSLDDFCNIPKGKEVVFGFNVPQSGAYADEGMDELKAYQLAVKHLNGEGDGGMLKTMKPLALKGNGVLGKKVTFVSGDTQTKADQARATAKRMIEKDGAIMITGGSSSAEAVAVQSLCQDVGVIFMAGLTHSNDTTGKDKRAYGFRHFFNAYMSGVALGPVLAEAYGKDRAAYHLTADYTWGWTQEESMKDATEKQGWKTVKAVRTPLGAADFSQYITPVLNSGADVLILNHYGKDMINSLTQAVQFGLRDKMANGKKFEIVVPLFSELMAQGAGDAIKGIYGTANWDWKLEDAATSAFTKSFGAAYGTPPSQAAQTCYVQAILYADAVERAGTFNPSKVIAALEGFEFDGLGNGKTLYRAADHQCFKDVLVVQGKEKPKDKFDLLEVKKIVPASQVTYDPSIFGGELGSKDAKAEGHHHHHH | soluble
MSLDETPTIHILWINAGLSCDGDSVALTAAMQPSIEEIVLGVLPGLPKIAVHWPLIDFECGPVGGSDTFIEWFFKGERGEIDPFVLVVEGSIPNESIKPEGYWCGFGDNPETGQPITTSEWIDRLAPKALAVVAIGTCATYGGIHAMAGNPTGAMGVPDYLGWDWKSQAGIPIVCVPGCPIQPDNFSETLTYLLYQAAGAAPMIPLDDKLRPTWLFGATEGHHHHHH | soluble

From the DeepSol protein solubility set
